These results are taken from US20140105889A1 (published 2014).

Common to all, as to assay: SPR (Biacore), FcγR over captured antibody; amount bound relative to IL6R-BF648/IL6R-L x100
A general note: Surface plasmon resonance follows binding to a sensor surface in real time, without labels.

One test concerns the target T1, human FcγRIIb (human, UniProt P31994 43-217).
T1 construct: also called FcγIIB
T1 sequence: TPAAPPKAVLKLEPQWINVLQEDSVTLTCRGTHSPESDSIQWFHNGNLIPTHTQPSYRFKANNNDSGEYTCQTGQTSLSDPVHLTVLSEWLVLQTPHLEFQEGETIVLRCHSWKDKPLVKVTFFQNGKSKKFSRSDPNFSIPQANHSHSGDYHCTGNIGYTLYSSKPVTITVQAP

Another test deals with T2, human FcγRIIIa type V (human, UniProt P08637 17-208, limits assumed).
T2 construct: also called FcγRIIIaV; FcγRIIIa(V)
T2 sequence (P08637 other isoform, or with tags, fused parts or gaps limits assumed): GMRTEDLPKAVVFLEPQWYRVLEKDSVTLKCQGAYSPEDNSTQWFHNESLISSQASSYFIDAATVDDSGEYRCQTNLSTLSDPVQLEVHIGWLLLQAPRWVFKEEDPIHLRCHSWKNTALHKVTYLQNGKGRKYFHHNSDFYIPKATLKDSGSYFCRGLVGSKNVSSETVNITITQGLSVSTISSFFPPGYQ

For another test, the target named is T3, human FcγRIIa type H (human, UniProt P12318 36-217).
T3 construct: Whole entry named for FcγRIIa allotype H131 (AAH20823.1); also called FcγRIIaH; FcγRIIa(H)
T3 sequence: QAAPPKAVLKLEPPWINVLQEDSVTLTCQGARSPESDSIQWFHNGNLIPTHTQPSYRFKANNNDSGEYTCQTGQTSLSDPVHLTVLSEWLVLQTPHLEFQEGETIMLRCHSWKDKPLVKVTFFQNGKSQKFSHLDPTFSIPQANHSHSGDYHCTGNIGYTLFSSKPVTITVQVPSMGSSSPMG

The next test concerns the target T4, human FcγRIIa type R (human, UniProt P12318 36-217).
T4 construct: also called FcγRIIaR; FcγRIIa(R)
T4 chain: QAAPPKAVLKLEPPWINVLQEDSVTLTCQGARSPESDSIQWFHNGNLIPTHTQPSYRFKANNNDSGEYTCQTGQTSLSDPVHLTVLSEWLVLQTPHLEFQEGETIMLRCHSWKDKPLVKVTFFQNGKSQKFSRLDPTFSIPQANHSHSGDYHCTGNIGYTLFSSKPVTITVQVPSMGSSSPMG

The target of a further test is T5, human FcγRIa (human, UniProt P12314 16-292, limits assumed).
T5 construct: also called CD64
T5 sequence (P12314 16-292 limits assumed): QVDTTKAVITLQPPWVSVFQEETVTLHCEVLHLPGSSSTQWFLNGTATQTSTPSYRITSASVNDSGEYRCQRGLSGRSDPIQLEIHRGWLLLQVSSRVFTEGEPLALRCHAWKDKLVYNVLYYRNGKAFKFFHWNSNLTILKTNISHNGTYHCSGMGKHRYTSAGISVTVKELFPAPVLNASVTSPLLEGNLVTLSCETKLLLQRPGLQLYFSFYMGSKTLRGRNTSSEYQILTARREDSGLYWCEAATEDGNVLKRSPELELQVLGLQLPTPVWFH

B1: IL6R-2B171/IL6R-L (antibody, human IgG1)
heavy: QVQLQESGPGLVKPSETLSLTCAVSGHSISHDHAWSWVRQPPGEGLEWIGFISYSGITNYNPSLQGRVTISRDNSKNTLYLQMNSLRAEDTAVYYCARSLARTTAMDYWGEGTLVTVSSASTKGPSVFPLAPSSKSTSGGTAALGCLVKDYFPEPVTVSWNSGALTSGVHTFPAVLQSSGLYSLSSVVTVPSSSLGTQTYICNVNHKPSNTKVDKKVEPKSCDKTHTCPPCPAPELLGGDSVFLFPPKPKDTLMISRTPEVTCVVVDVSHEDPEVKFNWYVDGVEVHNAKTKPREEQYNSTYRVVSVLTVLHQDWLNGKEYKCKLSNKALPAPIEKTISKAKGQPREPQVYTLPPSRDELTKNQVSLTCLVKGFYPSDIAVEWESNGQPENNYKTTPPVLDSDGSFFLYSKLTVDKSRWQQGNVFSCSVMHEALHNHYTQESLSLSP
light: DIQMTQSPSSLSASVGDRVTITCRASQDISSYLNWYQQKPGKAPKLLIYYTSRLHSGVPSRFSGSGSGTDFTFTISSLQPEDIATYYCQQGNTLPYTFGQGTKVEIK
notes: copies: 2 + 2
As for B1, the relative binding with human FcγRIIb is 113 relative value (IL6R-BF648/IL6R-L = 100); with human FcγRIIIa type V, 122 relative value (IL6R-BF648/IL6R-L = 100); in the test with human FcγRIIa type H it was 115 relative value (IL6R-BF648/IL6R-L = 100); in the test with human FcγRIIa type R it was 117 relative value (IL6R-BF648/IL6R-L = 100); with human FcγRIa, 116 relative value (IL6R-BF648/IL6R-L = 100).

B2: IL6R-2B172/IL6R-L (antibody, human IgG1)
heavy: QVQLQESGPGLVKPSETLSLTCAVSGHSISHDHAWSWVRQPPGEGLEWIGFISYSGITNYNPSLQGRVTISRDNSKNTLYLQMNSLRAEDTAVYYCARSLARTTAMDYWGEGTLVTVSSASTKGPSVFPLAPSSKSTSGGTAALGCLVKDYFPEPVTVSWNSGALTSGVHTFPAVLQSSGLYSLSSVVTVPSSSLGTQTYICNVNHKPSNTKVDKKVEPKSCDKTHTCPPCPAPELLGGDSVFLFPPKPKDTLMISRTPEVTCVVVDVSHEDPEVKFNWYVDGVEVHNAKTKPREEQYNSTYRVVSVLTVLHQDWLNGKEYKCKMSNKALPAPIEKTISKAKGQPREPQVYTLPPSRDELTKNQVSLTCLVKGFYPSDIAVEWESNGQPENNYKTTPPVLDSDGSFFLYSKLTVDKSRWQQGNVFSCSVMHEALHNHYTQESLSLSP
light: DIQMTQSPSSLSASVGDRVTITCRASQDISSYLNWYQQKPGKAPKLLIYYTSRLHSGVPSRFSGSGSGTDFTFTISSLQPEDIATYYCQQGNTLPYTFGQGTKVEIK
notes: copies: 2 + 2
In the case of B2, the relative binding with human FcγRIIb is 132 relative value (IL6R-BF648/IL6R-L = 100); with human FcγRIIIa type V it was 144 relative value (IL6R-BF648/IL6R-L = 100); with human FcγRIIa type H, 179 relative value (IL6R-BF648/IL6R-L = 100); with human FcγRIIa type R, 244 relative value (IL6R-BF648/IL6R-L = 100); in the test with human FcγRIa, 140 relative value (IL6R-BF648/IL6R-L = 100).

B3: IL6R-BP103/IL6R-L (antibody, human IgG1)
heavy: QVQLQESGPGLVKPSETLSLTCAVSGHSISHDHAWSWVRQPPGEGLEWIGFISYSGITNYNPSLQGRVTISRDNSKNTLYLQMNSLRAEDTAVYYCARSLARTTAMDYWGEGTLVTVSSASTKGPSVFPLAPSSKSTSGGTAALGCLVKDYFPEPVTVSWNSGALTSGVHTFPAVLQSSGLYSLSSVVTVPSSSLGTQTYICNVNHKPSNTKVDKKVEPKSCDKTHTCPPCPAPELLGGDSVFLFPPKPKDTLMISRTPEVTCVVVDVVHEDPEVKFNWYVDGVEVHNAKTKPREEQYNSTYRVVSVLTVLHQDWLNGKEYKCKVSNKALPAPIEKTISKAKGQPREPQVYTLPPSRDELTKNQVSLTCLVKGFYPSDIAVEWESNGQPENNYKTTPPVLDSDGSFFLYSKLTVDKSRWQQGNVFSCSVMHEALHNHYTQESLSLSP
light: DIQMTQSPSSLSASVGDRVTITCRASQDISSYLNWYQQKPGKAPKLLIYYTSRLHSGVPSRFSGSGSGTDFTFTISSLQPEDIATYYCQQGNTLPYTFGQGTKVEIK
notes: copies: 2 + 2
B3: the relative binding with human FcγRIIb was 107 relative value (IL6R-BF648/IL6R-L = 100); with human FcγRIIIa type V, 77 relative value (IL6R-BF648/IL6R-L = 100); with human FcγRIIa type H, 69 relative value (IL6R-BF648/IL6R-L = 100); with human FcγRIIa type R, 163 relative value (IL6R-BF648/IL6R-L = 100); in the test with human FcγRIa it was 56 relative value (IL6R-BF648/IL6R-L = 100).

B4: IL6R-BP102/IL6R-L (antibody, human IgG1)
heavy: QVQLQESGPGLVKPSETLSLTCAVSGHSISHDHAWSWVRQPPGEGLEWIGFISYSGITNYNPSLQGRVTISRDNSKNTLYLQMNSLRAEDTAVYYCARSLARTTAMDYWGEGTLVTVSSASTKGPSVFPLAPSSKSTSGGTAALGCLVKDYFPEPVTVSWNSGALTSGVHTFPAVLQSSGLYSLSSVVTVPSSSLGTQTYICNVNHKPSNTKVDKKVEPKSCDKTHTCPPCPAPELLGGDSVFLFPPKPKDTLMISRTPEVTCVVVDVQHEDPEVKFNWYVDGVEVHNAKTKPREEQYNSTYRVVSVLTVLHQDWLNGKEYKCKVSNKALPAPIEKTISKAKGQPREPQVYTLPPSRDELTKNQVSLTCLVKGFYPSDIAVEWESNGQPENNYKTTPPVLDSDGSFFLYSKLTVDKSRWQQGNVFSCSVMHEALHNHYTQESLSLSP
light: DIQMTQSPSSLSASVGDRVTITCRASQDISSYLNWYQQKPGKAPKLLIYYTSRLHSGVPSRFSGSGSGTDFTFTISSLQPEDIATYYCQQGNTLPYTFGQGTKVEIK
notes: copies: 2 + 2
Take B4: the relative binding is 106 relative value (IL6R-BF648/IL6R-L = 100) with human FcγRIIb; 86 relative value (IL6R-BF648/IL6R-L = 100) in the test with human FcγRIIIa type V; 66 relative value (IL6R-BF648/IL6R-L = 100) with human FcγRIIa type H; 165 relative value (IL6R-BF648/IL6R-L = 100) with human FcγRIIa type R; 104 relative value (IL6R-BF648/IL6R-L = 100) with human FcγRIa.

B5: IL6R-BP110/IL6R-L (antibody, human IgG1)
heavy: QVQLQESGPGLVKPSETLSLTCAVSGHSISHDHAWSWVRQPPGEGLEWIGFISYSGITNYNPSLQGRVTISRDNSKNTLYLQMNSLRAEDTAVYYCARSLARTTAMDYWGEGTLVTVSSASTKGPSVFPLAPSSKSTSGGTAALGCLVKDYFPEPVTVSWNSGALTSGVHTFPAVLQSSGLYSLSSVVTVPSSSLGTQTYICNVNHKPSNTKVDKKVEPKSCDKTHTCPPCPAPELLGGDSVFLFPPKPKDTLMISRTPEVTCVVVDVSNEDPEVKFNWYVDGVEVHNAKTKPREEQYNSTYRVVSVLTVLHQDWLNGKEYKCKVSNKALPAPIEKTISKAKGQPREPQVYTLPPSRDELTKNQVSLTCLVKGFYPSDIAVEWESNGQPENNYKTTPPVLDSDGSFFLYSKLTVDKSRWQQGNVFSCSVMHEALHNHYTQESLSLSP
light: DIQMTQSPSSLSASVGDRVTITCRASQDISSYLNWYQQKPGKAPKLLIYYTSRLHSGVPSRFSGSGSGTDFTFTISSLQPEDIATYYCQQGNTLPYTFGQGTKVEIK
notes: copies: 2 + 2
In the case of B5, the relative binding is 101 relative value (IL6R-BF648/IL6R-L = 100) with human FcγRIIb; 127 relative value (IL6R-BF648/IL6R-L = 100) with human FcγRIIIa type V; 127 relative value (IL6R-BF648/IL6R-L = 100) with human FcγRIIa type H; 128 relative value (IL6R-BF648/IL6R-L = 100) with human FcγRIIa type R; 105 relative value (IL6R-BF648/IL6R-L = 100) with human FcγRIa.

B6: IL6R-BP100/IL6R-L (antibody, human IgG1)
heavy: QVQLQESGPGLVKPSETLSLTCAVSGHSISHDHAWSWVRQPPGEGLEWIGFISYSGITNYNPSLQGRVTISRDNSKNTLYLQMNSLRAEDTAVYYCARSLARTTAMDYWGEGTLVTVSSASTKGPSVFPLAPSSKSTSGGTAALGCLVKDYFPEPVTVSWNSGALTSGVHTFPAVLQSSGLYSLSSVVTVPSSSLGTQTYICNVNHKPSNTKVDKKVEPKSCDKTHTCPPCPAPELLGGDSVFLFPPKPKDTLMISRTPEVTCVVVDVAHEDPEVKFNWYVDGVEVHNAKTKPREEQYNSTYRVVSVLTVLHQDWLNGKEYKCKVSNKALPAPIEKTISKAKGQPREPQVYTLPPSRDELTKNQVSLTCLVKGFYPSDIAVEWESNGQPENNYKTTPPVLDSDGSFFLYSKLTVDKSRWQQGNVFSCSVMHEALHNHYTQESLSLSP
light: DIQMTQSPSSLSASVGDRVTITCRASQDISSYLNWYQQKPGKAPKLLIYYTSRLHSGVPSRFSGSGSGTDFTFTISSLQPEDIATYYCQQGNTLPYTFGQGTKVEIK
notes: copies: 2 + 2
For B6, the relative binding was 110 relative value (IL6R-BF648/IL6R-L = 100) in the test with human FcγRIIb; 138 relative value (IL6R-BF648/IL6R-L = 100) with human FcγRIIIa type V; 128 relative value (IL6R-BF648/IL6R-L = 100) with human FcγRIIa type H; 197 relative value (IL6R-BF648/IL6R-L = 100) with human FcγRIIa type R; 121 relative value (IL6R-BF648/IL6R-L = 100) in the test with human FcγRIa.
